In patent US20140366219A1, “Increasing Soybean Defense Against Pests” (priority 2011, published 2014):

What was measured:
NtSABP2 = target: T1, NtSABP2 (Nicotiana tabacum, UniProt Q6RYA0); conditions: esterase activity toward MeSA; cited from earlier work
T1 sequence (Q6RYA0 1-260): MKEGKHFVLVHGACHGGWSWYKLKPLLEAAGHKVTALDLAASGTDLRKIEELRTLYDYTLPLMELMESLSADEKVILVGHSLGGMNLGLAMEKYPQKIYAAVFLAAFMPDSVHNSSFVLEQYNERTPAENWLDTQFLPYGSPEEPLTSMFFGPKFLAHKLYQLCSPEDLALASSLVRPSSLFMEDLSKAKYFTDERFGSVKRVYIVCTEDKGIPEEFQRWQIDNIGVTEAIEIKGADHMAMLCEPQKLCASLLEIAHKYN

PtSABP2-2 = conditions: esterase activity toward MeSA; cited from earlier work
AtMES1 = target: T2, AtMES1 (Arabidopsis thaliana, UniProt Q8S8S9); conditions: esterase activity toward MeSA; cited from earlier work
T2 sequence (Q8S8S9 1-263): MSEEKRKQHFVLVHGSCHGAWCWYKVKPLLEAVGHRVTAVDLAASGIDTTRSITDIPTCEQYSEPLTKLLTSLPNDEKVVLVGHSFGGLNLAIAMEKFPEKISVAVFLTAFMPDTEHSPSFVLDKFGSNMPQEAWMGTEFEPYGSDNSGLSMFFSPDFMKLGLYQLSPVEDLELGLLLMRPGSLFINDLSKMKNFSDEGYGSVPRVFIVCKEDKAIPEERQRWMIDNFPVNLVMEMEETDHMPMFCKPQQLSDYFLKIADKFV

AtMES9 = target: T3, AtMES9 (Arabidopsis thaliana, UniProt O23171); conditions: esterase activity toward MeSA; cited from earlier work
T3 sequence (O23171 1-256): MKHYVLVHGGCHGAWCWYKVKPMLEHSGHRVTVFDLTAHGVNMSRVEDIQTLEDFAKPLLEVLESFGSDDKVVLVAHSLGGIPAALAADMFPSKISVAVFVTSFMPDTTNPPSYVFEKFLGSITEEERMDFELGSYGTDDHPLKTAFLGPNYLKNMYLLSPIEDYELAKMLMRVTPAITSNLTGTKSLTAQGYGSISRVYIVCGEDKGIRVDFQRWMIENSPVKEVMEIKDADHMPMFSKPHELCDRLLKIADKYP

PtSABP2-1 = conditions: esterase activity toward MeSA; cited from earlier work
StMES1 = conditions: esterase activity toward MeSA; cited from earlier work
[1] = substrate: COC(=O)c1ccccc1O; assay: Two-step radiochemical methyl ester esterase assay, kinetic parameters of GmSABP2-1; type: biochemical, soybean; conditions: other: MeSA 5 μM to 100 μM, Lineweaver-Burk; 25.0 °C
Protocol: A two-step radiochemical esterase assay was performed to determine the activity of E. coli-expressed Glyma16g26060 following a protocol previously reported by (Forouhar et al., Proc. Natl. Acad. Sci. USA 102: 1773-1778, 2005). The reaction of the first step was the reaction of substrate 10 μM MeSA and purified recombinant E. coli-expressed Glyma16g26060 for 30 min at 25° C. After that, the sample was boiled to stop the reaction and denature the enzyme. The second reaction step was started with the addition of 3 μM ^14C labeled S-adenosyl-L-methionine (SAM) with a specific activity of 51.4 mCi/mmol (Perkin Elmer, Boston, Mass., USA), and respective known purified methyltransferase with high activity. Here, GmSAMT1 mentioned previously was used for SA methyltransferase enzyme. The reaction was preceded for 30 min at 25° C. Then radiolabeled products were extracted and the radioactivity was counted using a liquid scintillation counter.
Appropriate enzyme concentrations and incubation time were determined in time-course assays so that the reaction velocity was linear during the assay period. To determine the Km for MeSA, the concentrations of MeSA were independently varied in the range from 5 μM to 100 μM. Lineweaver-Burk plots were made to obtain apparent Km value. Optimal pH for GmSABP2-1 was assayed from pH 6.0 to pH 9.0. Final values are an average of three independent measurements.

SCN race 2 = assay: Nematode infection and demographics assay in transgenic soybean hairy roots; type: in vivo, Heterodera glycines; conditions: for reduction of susceptibility: susceptibility of vector control in susceptible background set at 100%; for (J3+J4)/total SCN ratio: overexpressing transgenic hairy roots, two weeks after inoculation
From the text: The soybean hairy root transformation system by infection with A. rhizogenes harboring the target genes were modified and used to study soybean resistance against SCN. A. rhizogenes K599 harboring the target gene, vector control and A. rhizogenes K599 alone were used to inoculate the TN02-275 soybeans, which are susceptible to SCN race 2. To better evaluate the resistance of the target gene, A. rhizogenes harboring the vector control and A. rhizogenes K599 alone were also used to inoculate the TN02-226 soybeans, which are resistant to SCN race 2. Generation of soybean hairy roots was modified as follows: First, soybean seeds were sterilized with chlorine gas. Second, a single layer of mature soybean seeds with intact seed coats were placed in open Petri dish, which was put in a bell jar desiccator within a fume hood. A beaker with 100 ml bleach was also placed in the desiccator and added 5 ml concentrated (12N) HCl along the side of the beaker. Then the seeds were kept in the closed desiccator immediately and maintained in the chlorine gas atmosphere overnight (about 16 h). After sterilization, seeds were transferred to the autoclaved filter paper moistened with sterilized distilled water in the Petri dishes for germination in a laminar flow hood. The germinated soybean seeds were sowed in sterilized vermiculite and six seeds were grown in each cell of 18-cell germination tray. The overnight cultured bacteria lawn of A. rhizogenes K599 with binary vector pJL-OFP, pJL-OFP-35S::GUS or pJL-OFP-35S::GmSAMT1 from LB medium plate containing […] kanamycin, or a culture of A. rhizogenes K599 lacking the binary vector grown in LB medium without any antibiotics was collected and suspended in 1 ml of sterile distilled water, respectively. Soybean cotyledonary nodes and upper hypocotyls of 5-day-old seedlings with unfolded cotyledons were stabbed three times by the syringe containing the bacterial suspension. In the first week, the trays were covered with the sterile transparent lids to retain high humidity. In the subsequent three weeks, plants were transferred into pots and the A. rhizogenes wounding sites were covered by wet sterile vermiculite to continually keep high humidity. Each day soybean plants were watered using sterile B&D solution containing 1 mM CaCl2, 0.5 mM KH2PO4, 10 μM Fe-citrate, 0.25 mM MgSO4, 0.25 mM K2SO4, 1 μM MnSO4, 2 μM H3BO4, 0.5 μM ZnSO4, 2 μM CuSO4, 0.1 μM CoSO4, 0.1 μM Na2MoO4, and 1 mM KNO3. The growth conditions for soybean plants were 12 h light/12 h dark at 28° C./25° C. with irradiance from fluorescent bulbs at 150-200 μmol m^−2·s^−1. After about four weeks, the hairy roots grew to approximately 10 cm in length. Soybean transgenic roots were detected based on OFP expression, using a fluorescence stereomicroscope (Olympus SZX12 fluorescence microscope and OFP filter). The tap root and non-transgenic roots were excised under the wounding site. Transgenic roots harboring pJL-OFP-35S::GUS screened by OFP signal were immersed in GUS solution (1 mM X-Gluc), 0.5 mM potassium ferrocyanide, 0.1% (v/v) TRITON™ X-100, 100 mM sodium phosphate buffer pH 7.0), and incubated at 37° C. overnight. In the following day, the X-Gluc solution was discarded. The roots were washed repeatedly with 70% ethanol to remove chlorophyll. Transgenic roots with visual GUS stain were recorded.
To easily compare the SCN infection, one transgenic root was left for the SCN inoculation. […]

GmICS1 (Glyma01g25690) = assay: qRT-PCR of GmICS1 in transgenic hairy roots; set-up: species or system soybean; conditions: Williams 82 transgenic hairy roots, without SCN treatment
GmICS2 (Glyma03g17420) = assay: qRT-PCR of GmICS2 in transgenic hairy roots; set-up: species or system soybean; conditions: Williams 82 transgenic hairy roots, without SCN treatment

COC(=O)c1ccccc1O [MeSA, methyl salicylate]
Km (NtSABP2): 8.6 µM
Km (PtSABP2-2): 24.6 µM
Km (AtMES1): 57.3 µM
Km (AtMES9): 147 µM
Km (PtSABP2-1): 68.2 µM
Km (StMES1): 57.9 µM

B1: GmSABP2-1 (Glycine max) (protein)
chain: MGSQNCMDRKHYVLVHGACHGAWCWYKLKPRLESAGHKVTVLDLAASGTNMKKIEDVDTFSEYSAPLLQLMATIPSNEKLVLVGHSLGGLNIALAMEKFPEKVAVGVFLTAFAPDTEHHPSYVLEKYNERTPLAAWLDTEFAPSGNKTSMFFGPNFLSDKLYQLSPIEDLELAKTLARPSSLFMEDLTKQKNFSKEGYGSVPRAFIVCTEDLGIPLEYQLLMIQNVGFNDVVEVKDADHMVMLCKPQELFDSLQQIATKYA
Km [1]: 46.2 ± 2.2 µM

B2: GmSAMT1: soybean salicylic acid methyltransferase gene (SEQ ID NO: 1), over-expressed in transgenic hairy roots via pJL-OFP-35S::GmSAMT1 (nucleic acid)
DNA: ATGGAAGTAGCACAGGTACTCCACATGAACGGTGGCGTTGGAGACGCAAGCTATGCAAACAACTCCCTTGTTCAGCAAAAGGTGATTTGTTTGACAAAGCCCATAAGAGAGGAAGCCATAAGAAGCCTCTATTGCAGCACACACCCCAGAAGCTTGGCAATTGCAGATTTGGGTTGCTCTTCTGGACCAAACACTTTATTTGTTGTGTCTGAATTCATAAAAATTGTGGAGAAGCTTTGCCGAGAGCTGAACCACAAATCTCCAGAATACAAAGTCTTTCTGAATGATCTCCCTGGGAATGACTTCAACAACATCTTCAAGTCTCTTGACAGCGTCAAAGAGAAATTGTGTGATGAAATGGAAAGTGGGATCGGTCCATGCTACTTCTCGGGTGTTCCCGGTTCTTTCTATGGAAGGGTTTTCCCATATCAAAGTCTTCATTTTGTCCATTCCTCATACAGCCTTCAATGGCTATCTAAGGTTCCTGAGGGTGTAGACAACAACAAGGGCAATGTTTACATAGGCAGTACGAGCCCCAAAAATGTTGTGAGAGCTTACTATGAGCAATTTCAGAGAGATTTCTCTCTTTTTCTCAAGTGTCGTGCAGAGGAATTGGTTGAAGGAGGACGCATGGTTCTCACATTTTTGGGAAGAAGAAGCGATGATCCATCTAGCAAGGATGGTTGCTACATTTGGGAGCTTTTGGCTACTGCTCTTAGTGATATGGTCTTGCAGGGAATCATAAGAGAAGAGCAATTAGATACTTTTAACATCCCTCAATACACTCCATCCCCATCTGAAGTGAAATTGGAAGTTCTTAAAGAAGGATCATTCGCCATCAATCGTCTAGAGGTTTCTGAGGTGAATTGGAATGCTCTCGATGAGTGGAATGCTCTAGACTTTGAATCTGAAAGGTCTGAATCACTTAGTGATGGTGAATACAATGTGGCACAGTGCATGAGGGCTGTGGCAGAACCTATGCTGATTAGCCACTTTGGTGAAGCTATCATTGAAGAGGTTTTTTGCCGCTACCAGCAAATCTTGGCTGAACGTATGTCCAAGGAGAAAACCAAGTTCATCAATGTTACCATATTATTGACTAGAAAAGCATAA
modifications: Glycine Max
reduction of susceptibility (SCN race 2; TN02-275 background): 85.6%
reduction of susceptibility (SCN race 2; Williams 82 background): 71.2%
(J3+J4)/total SCN ratio (SCN race 2; TN02-275 background): 3.4%
(J3+J4)/total SCN ratio (SCN race 2; Williams 82 background): 5.3%
GmICS1 transcript abundance relative to controls (GmICS1 (Glyma01g25690)): 5.3 times
GmICS2 transcript abundance relative to controls (GmICS2 (Glyma03g17420)): 8.2 times
